Experimental data reported in publication PMC10340464, “Identification of a Novel SSTR3 Full Agonist for the Treatment of Nonfunctioning Pituitary Adenomas” (Cancers, 2023).
One block for each compound: values may come before it. Numbered stars: 1 amine (or outer) side, 2 acyl side, 3 side chain; on linkers, the order of the positions; unused ones are H or OH. Square brackets hold non-standard residues; d marks the D form. Side chains are listed from the residue outwards. Peptide text beside a SMILES is read from it. * marks the point of attachment. Ethylenediamine = C(CN[*:2])N[*:1]; Hyp = O=C(O)[C@@H]1C[C@@H](O)CN1; Phg = N[C@H](C(=O)O)c1ccccc1; CO = O=C([*:1])[*:2]; Bn = c1ccc(C*)cc1

What was measured:
[1] = species, matrix, method and reference not given; cited from earlier work
[2] = molecular target: human somatostatin receptor 3 (human) (UniProt P32745)
Chain of human somatostatin receptor 3 (human) (P32745 whole entry): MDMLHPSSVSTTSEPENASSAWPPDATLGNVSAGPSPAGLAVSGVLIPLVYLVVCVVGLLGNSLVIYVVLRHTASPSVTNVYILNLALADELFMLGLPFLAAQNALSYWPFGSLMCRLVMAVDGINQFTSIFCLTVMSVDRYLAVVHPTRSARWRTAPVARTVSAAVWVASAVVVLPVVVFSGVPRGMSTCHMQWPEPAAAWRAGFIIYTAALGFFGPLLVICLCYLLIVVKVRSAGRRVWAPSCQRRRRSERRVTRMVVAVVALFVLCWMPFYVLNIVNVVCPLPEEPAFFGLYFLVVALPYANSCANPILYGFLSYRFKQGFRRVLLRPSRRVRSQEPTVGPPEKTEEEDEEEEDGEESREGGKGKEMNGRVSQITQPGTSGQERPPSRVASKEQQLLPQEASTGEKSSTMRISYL

[3] = molecular target: human somatostatin receptor 5 (human) (UniProt P35346)
Chain of human somatostatin receptor 5 (human) (P35346 whole entry): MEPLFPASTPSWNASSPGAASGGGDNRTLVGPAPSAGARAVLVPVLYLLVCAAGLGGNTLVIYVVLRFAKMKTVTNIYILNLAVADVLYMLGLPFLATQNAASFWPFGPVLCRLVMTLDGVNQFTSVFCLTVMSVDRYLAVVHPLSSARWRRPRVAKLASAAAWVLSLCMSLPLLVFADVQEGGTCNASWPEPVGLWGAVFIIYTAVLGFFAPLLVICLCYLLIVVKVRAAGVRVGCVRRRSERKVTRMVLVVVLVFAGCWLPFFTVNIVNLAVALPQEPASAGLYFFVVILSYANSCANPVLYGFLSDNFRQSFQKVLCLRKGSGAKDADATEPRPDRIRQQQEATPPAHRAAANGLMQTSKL

[4] = molecular target: human somatostatin receptor 1 (human) (UniProt P30872); test: radioligand binding; competition with 3-[125I]iodotyrosyl11 somatostatin-14 on membrane extracts of CHO-K1 cells expressing the human receptor; agonist 10^-11 to 3 x 10^-7 M, n = 2; 60 min at 25 °C, filtered and counted
Chain of human somatostatin receptor 1 (human) (P30872 whole entry): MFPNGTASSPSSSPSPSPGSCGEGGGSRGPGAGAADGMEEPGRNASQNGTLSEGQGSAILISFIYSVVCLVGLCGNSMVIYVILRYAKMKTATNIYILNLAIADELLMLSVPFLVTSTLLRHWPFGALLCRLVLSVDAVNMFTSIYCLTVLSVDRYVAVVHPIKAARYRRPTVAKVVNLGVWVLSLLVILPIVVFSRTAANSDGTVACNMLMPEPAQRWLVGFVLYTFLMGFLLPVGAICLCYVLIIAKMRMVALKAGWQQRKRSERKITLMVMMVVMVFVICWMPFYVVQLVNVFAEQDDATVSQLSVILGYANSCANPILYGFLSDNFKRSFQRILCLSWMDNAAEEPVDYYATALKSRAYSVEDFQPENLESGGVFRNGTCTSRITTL

[5] = molecular target: human somatostatin receptor 2 (human) (UniProt P30874); test: as above
Chain of human somatostatin receptor 2 (human) (P30874 whole entry): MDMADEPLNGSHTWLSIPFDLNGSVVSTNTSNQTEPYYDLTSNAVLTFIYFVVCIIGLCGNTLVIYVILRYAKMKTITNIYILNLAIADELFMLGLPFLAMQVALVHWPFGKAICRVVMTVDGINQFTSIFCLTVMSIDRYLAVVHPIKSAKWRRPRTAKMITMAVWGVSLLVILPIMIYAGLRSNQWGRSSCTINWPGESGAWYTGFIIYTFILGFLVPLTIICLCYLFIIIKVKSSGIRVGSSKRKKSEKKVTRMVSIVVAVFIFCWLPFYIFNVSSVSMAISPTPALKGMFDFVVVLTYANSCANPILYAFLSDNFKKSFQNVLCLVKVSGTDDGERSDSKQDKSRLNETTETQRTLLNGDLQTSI

[6] = molecular target: human somatostatin receptor 3 (human) (UniProt P32745); test: as above
[7] = molecular target: human somatostatin receptor 5 (human) (UniProt P35346); test: as above

Compound: C[C@H](N)C(=O)NCC(=O)N[C@H]1CSSC[C@@H](C(=O)O)NC(=O)[C@H](CO)NC(=O)[C@H]([C@@H](C)O)NC(=O)[C@H](Cc2ccccc2)NC(=O)[C@H]([C@@H](C)O)NC(=O)[C@H](CCCCN)NC(=O)[C@H](Cc2c[nH]c3ccccc23)NC(=O)[C@H](Cc2ccccc2)NC(=O)[C@H](Cc2ccccc2)NC(=O)[C@H](CC(N)=O)NC(=O)[C@H](CCCCN)NC1=O [SST-14]
Half-time life [1]: 2.5 min

Compound: C[C@@H](O)[C@@H]1NC(=O)[C@H](CCCCN)NC(=O)[C@@H](Cc2c[nH]c3ccccc23)NC(=O)[C@H](Cc2ccccc2)NC(=O)[C@@H](NC(=O)[C@H](N)Cc2ccccc2)CSSC[C@@H](C(=O)N[C@H](CO)[C@@H](C)O)NC1=O [Octreotide]
Half-time life [1]: 120 min

Compound: CSCC[C@H](NC(=O)[C@H](C)NC(=O)[C@@H]1CCCN1C(=O)[C@H](CC(N)=O)NC(=O)[C@H](CO)NC(=O)[C@H](CC(N)=O)NC(=O)[C@H](C)NC(=O)[C@@H](N)CO)C(=O)N[C@@H](C)C(=O)N1CCC[C@H]1C(=O)N[C@@H](CCCNC(=N)N)C(=O)N[C@@H](CCC(=O)O)C(=O)N[C@@H](CCCNC(=N)N)C(=O)N[C@@H](CCCCN)C(=O)N[C@@H](C)C(=O)NCC(=O)N[C@H]1CSSC[C@@H](C(=O)O)NC(=O)[C@H](CO)NC(=O)[C@H]([C@@H](C)O)NC(=O)[C@H](Cc2ccccc2)NC(=O)[C@H]([C@@H](C)O)NC(=O)[C@H](CCCCN)NC(=O)[C@H](Cc2c[nH]c3ccccc23)NC(=O)[C@H](Cc2ccccc2)NC(=O)[C@H](Cc2ccccc2)NC(=O)[C@H](CC(N)=O)NC(=O)[C@H](CCCCN)NC1=O [SST-28]
Half-time life [1]: 2.0 min

EC50 of GIRK2 channel activation via SSTR3 in transfected HEK293 cells (fluorescence membrane potential assay) [2]: 63 nM | receptor internalization in U2OS cells transfected with SSTR3-tGFP, 10^-9 to 10^-5 M, 3 h; the cell gives 10^-5 M (10^-6 M) (% of activity) [2]: 46.3 | EC50 of GIRK2 channel activation via SSTR5 in transfected HEK293 cells (fluorescence membrane potential assay) [3]: 16.5 nM | receptor internalization in U2OS cells transfected with SSTR5-tGFP, 10^-9 to 10^-5 M, 7 h; the cell gives 10^-5 M (10^-6 M) (% of activity) [3]: 43.9 | IC50 [4]: 43.9 nM | IC50 [5]: 5.5 nM | IC50 [6]: 2.73 nM | IC50 [7]: 0.37 nM
Compound: Pasireotide (peptide)

Compound: NCCCC[C@@H]1NC(=O)[C@@H](Cc2c[nH]c3ccccc23)NC(=O)[C@H](c2ccccc2)NC(=O)[C@@H]2C[C@@H](OC(=O)NCCN)CN2C(=O)[C@H](Cc2ccccc2)NC(=O)[C@H](Cc2ccc(OCc3ccccc3)cc2)NC1=O [Pasireotide] (cyclo([Hyp]([CO-Ethylenediamine])[Phg][dW]KY(Bn)F))
Half-time life [1]: 1080 min

receptor internalization in U2OS cells transfected with SSTR5-tGFP, 10^-9 to 10^-5 M, 7 h; the cell gives 10^-5 M (10^-6 M) (% of activity) [3]: 39.3
Compound: Octreotide (peptide)
